According to patent publication US7521477B2, “Vitamin C derivatives with peptide, preparation method thereof and composition comprising the same” (Peptron Co., Ltd., priority 2003, dated 2009):
Numbered stars: 1 amine (or outer) side, 2 acyl side, 3 side chain; on linkers, the order of the positions; unused ones are H or OH. Ends that are not written are not given here. * marks the point of attachment. Suc = O=C(CCC(=O)[*:2])[*:1]; Propyl = CCC*

How the values were obtained:
male Hartley guinea pigs [1] = test: Phototoxicity test
Experimental: Each of the test samples was applied to the skin of guinea pigs, and the guinea pigs were exposed to ultraviolet A (UVA) radiation. Then, potency to induce phototoxicity was evaluated. Induction of phototoxicity, which is an abnormal response of the skin to a photo-stimulus such as ultraviolet or visible light, occurs non-immunologically by a chemical. Unlike the allergic response, the degree of phototoxicity can be expected by sufficient intensity of radiation and drugs.
CP and 8-MOP were prepared at a final concentration of 10% in DMSO and then diluted to 1%. Each of guinea pigs was fixed on a fixing plate, and the skin of the guinea pig was covered with 50 μl of each of the test samples. Then, the right area of the skin was not exposed to UV light, and the left area of the skin was exposed to UVA light (320 to 380 nm) of 15 J/cm^2, which was irradiated in a distance of about 10 cm for about 2 hrs. 24 hrs, 48 hr and 72 hrs after UVA irradiation, photosensitization in the treatment group was evaluated in comparison with that in the positive control groups.

male Hartley guinea pigs [2] = test: Photosensitization test (Adjuvant & Strip method); type: in vivo
Experimental: A photosensitization test for the compound II-4 was carried out according to an Adjuvant & Strip method using male Hartley guinea pigs. After four sites to be sensitized were selected at the cervical and dorsal skin of the guinea pigs, an emulsion of WFI and FCA were intradermally injected to each of the selected sites. The sensitized sites were stripped only in a degree of inducing weak erythema, and covered with 0.01 PBS (excipient group), the compound II-4 (test group) and CP (chlorpromazine; positive control group) in a non-occlusive manner. After two hours, long wave-length UV light of about 10 J/cm^2 was irradiated to the test substance-applied sites. 24 hrs, 48 hrs and 72 hrs after UV irradiation, signs of photosensitization were investigated.

[3] = Color change test (storage stability in solution); type: physicochemical; parameters: key: −: no or very slight noticeable change (colorless or light yellow); +: slight; ++: moderate; +++: extreme; settings: 50 mM in 50 mM potassium phosphate pH 7.0, 40° C.
Experimental: The compounds I to IV synthesized in Example 4 and vitamin C (Sigma Aldrich) were independently dissolved in 50 mM potassium phosphate of pH 7.0 at a concentration of 50 mM, and stored in an incubator at 40° C. for three weeks. Thereafter, the compounds and vitamin C were evaluated for color change according to the standard criteria, and the results are given in Table 2, below.

mushroom tyrosinase = mushroom tyrosinase (Agaricus bisporus, UniProt C7FF04); test: Inhibitory activity against tyrosinase; type: biochemical, mushrooms; settings: tyrosine substrate, pH 6.8, 37° C.; read-out: IC50 (compound concentration to inhibit 50% of tyrosinase activity)
Chain of mushroom tyrosinase (C7FF04 1-392): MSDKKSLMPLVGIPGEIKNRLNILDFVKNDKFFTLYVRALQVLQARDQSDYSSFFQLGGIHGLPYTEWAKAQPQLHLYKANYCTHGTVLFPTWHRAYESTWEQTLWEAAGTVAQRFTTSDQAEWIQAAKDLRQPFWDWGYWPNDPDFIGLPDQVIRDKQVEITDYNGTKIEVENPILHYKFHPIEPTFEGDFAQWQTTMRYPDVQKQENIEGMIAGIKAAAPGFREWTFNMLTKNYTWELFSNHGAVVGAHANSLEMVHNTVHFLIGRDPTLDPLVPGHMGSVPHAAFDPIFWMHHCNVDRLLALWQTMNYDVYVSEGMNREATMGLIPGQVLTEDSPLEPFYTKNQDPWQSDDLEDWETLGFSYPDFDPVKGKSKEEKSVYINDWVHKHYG
Experimental: Tyrosinase was purchased from the Sigma Company, which was isolated from mushrooms and purified. Tyrosin as a substrate for the purified mushroom tyrosinase was prepared by dissolving in 0.05 M potassium phosphate buffer (pH 6.8) in an amount of 0.3 mg/ml. The compounds and vitamin C were dissolved in distilled water at a concentration of 10 mM, and diluted with distilled water to suitable concentrations.
0.5 ml of the tyrosine solution and 0.5 ml of a buffer were put into a test tube, and 0.5 ml of the diluted compound or vitamin C was added to the test tube. After each test tube was incubated in an incubator at 37° C. for 10 min, 0.05 ml of tyrosinase (2,000 U/ml) was added to each test tube, followed by incubation at 37° C. for 10 min. A sample added with 0.5 ml distilled water instead of the compound was used as a control. Thereafter, each test tube was rapidly cooled on ice to terminate the reaction. Absorbance at 475 nm was measured using a spectrophotometer. Inhibition rate against tyrosinase was calculated using the measured absorbance according to the following Equation 1, and IC50 values (compound concentration to inhibit 50% of tyrosinase activity) were then determined. Inhibition rate (%)=(A−B)/A×100 Equation 1
wherein, A is an absorbance at 475 nm of a sample not containing an inhibitor, and B is an absorbance at 475 nm of a sample containing an inhibitor.

[4] = Areas exposed to UVA, applied concentration 0.1%
[5] = Areas exposed to UVA, applied concentration 1%
[6] = Areas exposed to UVA, applied concentration 10%
[7] = Areas not exposed to UVA, applied concentration 0.1%
[8] = Areas not exposed to UVA, applied concentration 1%
[9] = Areas not exposed to UVA, applied concentration 10%

Compound | Color change After 1 week [3] | Color change After 2 weeks [3] | Color change After 3 weeks [3] | also measured
COc1c2occc2cc2ccc(=O)oc12 [Compound 8-MOP, 8-methoxypsoralen] |  |  |  | Evaluation (male Hartley guinea pigs [1]; [4]): Clearly irritating; Mean score (male Hartley guinea pigs [1]; [4]): 2.3; Evaluation (male Hartley guinea pigs [1]; [5]): Extremely irritating; Mean score (male Hartley guinea pigs [1]; [5]): 3.2; Evaluation (male Hartley guinea pigs [1]; [6]): Extremely irritating; Mean score (male Hartley guinea pigs [1]; [6]): 4.0; Evaluation (male Hartley guinea pigs [1]; [7]): Practically non-irritating; Mean score (male Hartley guinea pigs [1]; [7]): 0; Evaluation (male Hartley guinea pigs [1]; [8]): Clearly irritating; Mean score (male Hartley guinea pigs [1]; [8]): 1.4; Evaluation (male Hartley guinea pigs [1]; [9]): Clearly irritating; Mean score (male Hartley guinea pigs [1]; [9]): 1.4
CN(C)CCCN1c2ccccc2Sc2ccc(Cl)cc21 [CP, Chlorpromazine] |  |  |  | Total score/Site No. (male Hartley guinea pigs [1]; male, Hartley, guinea pig, in vivo): 0 + 0/10; Stimulation index (male Hartley guinea pigs [2]; Areas exposed to UVA): 5.8; Stimulation index (male Hartley guinea pigs [2]; Areas not exposed to UVA): 0.0; Photosensitization index (male Hartley guinea pigs [2]; index of UVA irradiation site minus index of non-irradiation site): 5.8
5-(succinyl-lysyl-threonyl-threonyl-lysyl-serine)ascorbic acid [Compound I-4] | − | + | + | 
5,6-di(succinyl-glycyl-lysyl-histidine)ascorbic acid [III-2] | − | + | + | 
NCCCC[C@H](NC(=O)CNC(=O)CCC(=O)OC(CO)C1OC(=O)C(O)=C1O)C(=O)N[C@@H](Cc1c[nH]cn1)C(=O)O (some centres unmarked) [Compound I-2, 5-(succinyl-glycyl-lysyl-histidine)ascorbic acid] | − | + | + | 
2-(propyl-glycyl-lysyl-histidine)ascorbic acid [IV-2] | − | + | ++ | 
O=C(CCC(=O)OCC(OC(=O)CCC(=O)NCC(=O)N1CCCC1C(=O)N1CC(O)CC1C(=O)O)C1OC(=O)C(O)=C1O)NCC(=O)N1CCCC1C(=O)N1CC(O)CC1C(=O)O (centres unmarked) [III-3, 5,6-(succinyl-glycyl-prolyl-hydroxyproline)ascorbic acid] | − | + | + | 
NCCCCC(NC(=O)C(Cc1cnc[nH]1)NC(=O)CNC(=O)CCC(=O)OCC(O)C1OC(=O)C(O)=C1O)C(=O)O (centres unmarked) [II-1, 6-(succinyl-glycyl-histidyl-lysine)ascorbic acid] | − | + | + | IC50 (mushroom tyrosinase): 650 µM
5,6-di(succinyl-glycyl-histidyl-lysine)ascorbic acid [III-1] | − | + | + | 
6-(succinyl-glycyl-lysyl-histidine)ascorbic acid [II-2] | − | + | + | IC50 (mushroom tyrosinase): 700 µM
O=C(CCC(=O)OC(CO)C1OC(=O)C(O)=C1O)NCC(=O)N1CCCC1C(=O)N1CC(O)CC1C(=O)O (centres unmarked) [Compound I-3, 5-(succinyl-glycyl-prolyl-hydroxyproline)ascorbic acid] | − | + | + | 
NCCCCC(NC(=O)C(Cc1cnc[nH]1)NC(=O)CNCCCOC1=C(O)C(C(O)CO)OC1=O)C(=O)O (centres unmarked) [IV-1, 2-(propyl-glycyl-histidyl-lysine)ascorbic acid] | − | + | ++ | 
O=C(CCC(=O)OCC(O)C1OC(=O)C(O)=C1O)NCC(=O)N1CCCC1C(=O)N1CC(O)CC1C(=O)O (centres unmarked) [II-3, 6-(succinyl-glycyl-prolyl-hydroxyproline)ascorbic acid] | − | + | + | 
2-(propyl-lysyl-threonyl-threonyl-lysyl-serine(SEQ ID NO:1))ascorbic acid ({ascorbic acid-Propyl}-KTTKS) [IV-4] | − | + | ++ | 
O=C1OC(C(O)CO)C(O)=C1OCCCNCC(=O)N1CCC[C@H]1C(=O)N1CC(O)C[C@H]1C(=O)O (some centres unmarked) [IV-3, 2-(propyl-glycyl-prolyl-hydroxyproline)ascorbic acid] | − | + | ++ | 
O=C1O[C@H]([C@@H](O)CO)C(O)=C1O [Vitamin C, ascorbic acid] | + | +++ |  | 
NCCCCC(NC(=O)C(Cc1cnc[nH]1)NC(=O)CNC(=O)CCC(=O)OC(CO)C1OC(=O)C(O)=C1O)C(=O)O (centres unmarked) [Compound I-1, 5-(succinyl-glycyl-histidyl-lysine)ascorbic acid] | − | + | + | 
5,6-di(succinyl-lysyl-threonyl-threonyl-lysyl-serine(SEQ ID NO:1))ascorbic acid ({ascorbic acid-Suc}-KTTKS; also: two succinyl-linked peptides on one ascorbic acid) [III-4] | − | + | + | 
